Article PMC9712106

Columns and labels:
[1] = target: PfRipr (residues 20 to 1086) (P. falciparum) (UniProt O97302); experiment: BLI; PfRipr or PfPTRAMP at 20 μg/ml immobilised on Anti-Penta-His (His1K) biosensors, twofold dilution series of PTRAMP–CSS or PfCSS; 25 °C, PBS pH 7.4, 0.1% BSA, 0.02% Tween-20; 1:1 model
[2] = target: PfPTRAMP (residues 25 to 309) with a C-terminal His-tag (P. falciparum); experiment: as above

Row | Substance | Kd [1] [µM] | Kd [2] [µM]
1 | PTRAMP–CSS heterodimer (disulfide-linked PfPTRAMP 42–309 and PfCSS 20–290) (complex) | 3.6 | –
2 | PfCSS (residues 20 to 290) (domain or fragment) | 1.1 | 19
